{"source": "patent US20240043859A1", "about": "“HERBICIDE-RESISTANT PROTEIN, AND GENE AND USE THEREOF” (QINGDAO KINGAGROOT CHEMICAL COMPOUND CO., LTD., priority 2020, published 2024)", "molecules": {"B1": {"name": "QYD42: AAD-like enzyme, SEQ ID NO. 83; expressed from vectors pQY2309 (Arabidopsis), pQY2329 (maize), pQY2330 (soybean) (protein)", "chain": "MQITPIADATFGATVTGLRLATLDDAGFARLHAAWLQHALLVFPGQFLTNAEQIGFAKRFGPIERIGGGDIVAISNVKADGTVRQHSPAEWDDMMKVIVGNMAWHADSTYMPVMAQGAVFSAEVVPPTGGRTCFADMRAAYDALDDATRALVHQRSARHSLVYSQSKLGHVQQAGSAYVGYGMDTTATPLRPLVKRHPETGRLSLLIGRHAHAIPGLEEAESERFLEDLVAWACQPPRVVAHHWTAGDVVLWDNRCLLHRAEPWDFTLPRVMWHSRLAGHPETEAAPLV", "modifications": "Synthetic polypeptide, QYD42, D42"}}, "key": {"[1]": {"experiment": "Chromogenic reaction of degrading herbicides in bacteria: 2,4-D", "assay_type": "cell-based, Escherichia coli", "conditions": "recombinant E. coli expressing the gene, 2,4-D added to the medium, red = phenols", "outline": "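E. coli BL21(DE3) carrying AAD12 or empty pET15b was induced with 0.1 mM IPTG plus 2 mM α-ketoglutarate and given 0.5 mM 2,4-D, then grown overnight at 28 °C. Supernatant was treated with pH 10 borate, potassium ferricyanide and 4-aminoantipyrine for 5 min at room temperature; red colour read at A510.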"}, "[2]": {"assay_type": "cell-based, Escherichia coli"}}, "note": "“Also recorded” adds a separate entry of the source.", "data": [{"molecule": "B1", "values": [{"measurement": "Chromogenic reaction of degrading herbicides in bacteria: 2,4-D", "setting": "[1]", "value": "Yes"}, {"measurement": "Chromogenic reaction of degrading herbicides in bacteria: 2,4-D", "setting": "[1]; listed as D42", "value": "could degrade 2,4-D; also recorded: capable of degrading 2,4-D"}, {"measurement": "Chromogenic reaction of degrading herbicides in bacteria: MCPA", "setting": "[2]", "value": "Yes"}]}]}
